This assay addresses T1, Cdc48-FLAG3 (S. cerevisiae, UniProt P25694 1-835).
T1 construct: Cdc48, S. cerevisiae; the results and the purification methods say it was purified from yeast; also called FLAG-tagged Cdc48; purified Cdc48; source: S. cerevisiae W303, expressed from the endogenous locus; in extract for the co-IP
In words: pull-down; GST, GST-GYF or GST-GAF on glutathione beads, 10-fold molar excess of Cdc48-Flag; 20 mM Tris pH 7.5, 200 mM NaCl, 0.05% Triton X-100, 15% glycerol, 75 ug/mL BSA; 2 h; western blot. Particulars: both partners purified. On the technique in general: Immunoblotting shows a protein as a band on a membrane.

Residue numbers refer to the chain shown, from its start. Numbers in names are those of the source.

T1 sequence (P25694 whole entry): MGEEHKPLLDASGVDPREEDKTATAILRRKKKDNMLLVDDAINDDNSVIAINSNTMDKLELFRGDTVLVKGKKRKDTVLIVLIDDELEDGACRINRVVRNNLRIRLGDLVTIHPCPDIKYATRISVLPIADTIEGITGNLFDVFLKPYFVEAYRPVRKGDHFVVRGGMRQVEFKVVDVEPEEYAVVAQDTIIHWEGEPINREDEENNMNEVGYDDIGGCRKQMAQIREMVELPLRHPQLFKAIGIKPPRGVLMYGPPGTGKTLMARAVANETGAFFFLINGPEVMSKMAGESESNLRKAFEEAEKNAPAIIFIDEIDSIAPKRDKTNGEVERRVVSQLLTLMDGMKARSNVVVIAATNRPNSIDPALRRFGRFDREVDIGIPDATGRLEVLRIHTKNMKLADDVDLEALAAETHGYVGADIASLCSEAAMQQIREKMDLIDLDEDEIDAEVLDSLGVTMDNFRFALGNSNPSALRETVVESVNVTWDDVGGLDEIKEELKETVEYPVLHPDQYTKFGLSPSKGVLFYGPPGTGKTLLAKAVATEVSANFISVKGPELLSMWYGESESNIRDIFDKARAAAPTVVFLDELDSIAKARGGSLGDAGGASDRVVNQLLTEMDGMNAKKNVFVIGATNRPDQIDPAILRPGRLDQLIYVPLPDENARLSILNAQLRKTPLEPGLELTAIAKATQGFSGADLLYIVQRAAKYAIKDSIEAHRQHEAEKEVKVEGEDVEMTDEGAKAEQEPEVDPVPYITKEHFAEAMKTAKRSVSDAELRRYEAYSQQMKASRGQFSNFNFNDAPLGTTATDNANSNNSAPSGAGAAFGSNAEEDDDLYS

B1: GST-Smy2 (205-261), GYF (domain or fragment, S. cerevisiae, UniProt P32909 205-261, looked up)
chain: ESSWRYIDTQGQIHGPFTTQMMSQWYIGGYFASTLQISRLGSTPETLGINDIFITLG
notes: Smy2, S. cerevisiae, amino acids 205-261 holding the GYF motif; Vector pGST 6p-1 / pGEX 6p-1; also called GST-GYF; GST-Smy_(205-261); source: bacterial expression (E. coli), purified on glutathione agarose beads
For B1, the binding result is on record as “binds”.

B2: GST-Smy2 (205-261) Y234A, GAF (domain or fragment, S. cerevisiae, UniProt P32909 205-261, looked up)
chain: B1 chain with Y30A
notes: Smy2, S. cerevisiae, amino acids 205-261 with the GYF motif changed to GAF; also called GST-GAF; mutated (GAF) version; source: bacterial expression (E. coli), purified on glutathione agarose beads
For the molecule B2, the binding result is reported as “binds”.

The record behind these values is PMC9638028, “Yeast Smy2 and its human homologs GIGYF1 and -2 regulate Cdc48/VCP function during transcription stress” (Cell Reports, 2022).
